From patent US5079230A, “Stable bioactive somatotropins” (Pitman-Moore, Inc., priority 1988, dated 1992)

Legend:
[1] = test system: hypophysectomized (hypox) rats; assay: body weight gain in hypophysectomized (hypox) rats; type: in vivo, rat; conditions: for % Weight Gain Mean: hypox rats, 24 ug pST/day for 9 days, weight gain over a 10 day period; for % Relative Bioactivity: relative to the pituitary derived pST standard tested at similar concentration, 24 ug
Description: The relative bioactivity and biopotency of non-derivatized rpST and small-loop derivatized rpST prepared according to the method of Example 1 was determined by measuring the body weight gain in hypophysectomized (hypox) rats. Four (4) groups of 10 hypox rats per group received 24 μg pST/day of pST standard, dialyzed Zn-rpST, small-loop derivatized Zn-rpST, or non-derivatized Zn-rpSt for 9 days. Rats were monitored daily and their body weight gains recorded over a 10 day period. The weight gain was measured and the percent relative bioactivity calculated as a percent of standard.

[2] = biological target: T1, pregnant rabbit liver membranes (Oryctolagus cuniculus, UniProt P19941); assay: pST binding assay using pregnant rabbit liver membranes and 125I-labelled rpST; conditions: calculated from the IC-50 data relative to the standard
T1 construct: pregnant rabbit liver membranes; from tissue; host or cells: liver membranes of pregnant rabbits
T1 sequence (P19941 19-638): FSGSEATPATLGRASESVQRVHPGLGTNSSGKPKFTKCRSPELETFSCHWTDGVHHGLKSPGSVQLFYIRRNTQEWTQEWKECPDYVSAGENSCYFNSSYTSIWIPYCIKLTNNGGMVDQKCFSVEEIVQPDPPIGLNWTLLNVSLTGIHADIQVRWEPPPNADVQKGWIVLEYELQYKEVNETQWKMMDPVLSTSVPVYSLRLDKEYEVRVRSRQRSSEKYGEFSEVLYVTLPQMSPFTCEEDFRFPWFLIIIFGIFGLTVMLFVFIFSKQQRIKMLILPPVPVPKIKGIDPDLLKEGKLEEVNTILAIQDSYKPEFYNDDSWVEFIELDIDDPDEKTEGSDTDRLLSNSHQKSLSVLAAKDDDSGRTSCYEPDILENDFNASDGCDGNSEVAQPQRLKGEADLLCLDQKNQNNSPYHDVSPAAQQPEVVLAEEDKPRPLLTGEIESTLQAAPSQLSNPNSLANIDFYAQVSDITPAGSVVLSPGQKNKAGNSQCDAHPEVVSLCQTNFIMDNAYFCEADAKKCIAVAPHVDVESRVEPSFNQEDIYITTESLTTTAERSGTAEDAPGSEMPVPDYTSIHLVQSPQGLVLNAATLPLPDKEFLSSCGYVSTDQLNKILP
Description: The bioactivity of non-derivatized rpST and small-loop derivatized rpST prepared according to the method of Example 1 was determined by pST binding assays using pregnant rabbit liver membranes and ^125 I-labelled rpST. A modified version of the assay disclosed in Tsushima et al., Radioreceptor Assay for Growth Hormone, J. Clin. Endocrinol. Metab., 37:334-337 (1973) was used: The rpST sample was incubated at 30° C. for 3.5 hours with 16,000 cpm ^125 I-rpST. The range of concentration used for the displacement curve of the rpST standard and small-loop derivatized rpST was between 0.38-200 ng/ml. Additional information for the pST binding assay are described in Tsushima et al., Radioreceptor Assay for Growth Hormone, J. Clin. Endocrinol. Metab., 37:334-337 (1973).

[3] = biological target: T2, porcine liver membranes (Sus scrofa, UniProt P19756); assay: binding activity in porcine liver membranes (homologous somatotropin radioreceptor assay); conditions: relative to unmodified (non-derivatized) rpST = 100%
T2 construct: porcine liver membranes; from tissue; host or cells: porcine liver membranes
T2 sequence (P19756 19-638): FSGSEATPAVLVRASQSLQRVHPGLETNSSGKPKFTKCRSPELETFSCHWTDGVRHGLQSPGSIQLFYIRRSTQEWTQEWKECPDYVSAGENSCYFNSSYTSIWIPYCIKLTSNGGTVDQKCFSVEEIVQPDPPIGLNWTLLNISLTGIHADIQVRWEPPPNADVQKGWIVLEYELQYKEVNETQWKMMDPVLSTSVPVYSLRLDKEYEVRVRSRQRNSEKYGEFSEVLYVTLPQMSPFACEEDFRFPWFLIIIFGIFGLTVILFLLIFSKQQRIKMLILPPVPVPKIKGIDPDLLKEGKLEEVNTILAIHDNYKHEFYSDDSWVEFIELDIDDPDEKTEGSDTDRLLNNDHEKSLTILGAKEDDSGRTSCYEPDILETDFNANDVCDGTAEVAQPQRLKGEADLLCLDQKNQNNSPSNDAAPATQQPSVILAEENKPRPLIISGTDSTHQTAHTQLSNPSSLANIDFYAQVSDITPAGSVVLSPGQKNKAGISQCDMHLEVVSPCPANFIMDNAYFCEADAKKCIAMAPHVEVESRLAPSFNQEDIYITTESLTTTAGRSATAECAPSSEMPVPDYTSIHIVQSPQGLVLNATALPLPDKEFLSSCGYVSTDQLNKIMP
Description: The bioactivity of non-derivatized rpST and small-loop derivatized rpST prepared according to the method of Example 1 was determined using binding activity in porcine liver membranes according to a modification of the method in Haro et al., Homologous Somatotropin Radio Receptor Assay Utilizing Recombinant Bovine Growth Hormone, Mol. Cell Endocrinol., 38:109-116 (1985).

[4] = solution stability, rpST monomer by Superose-12 size-exclusion chromatography; type: physicochemical; conditions: 8 mg/ml, carbonate buffer pH 9.8 or phosphate buffered saline pH 7.4, 37° C., 0.6-120 days; compared with non-derivatized rpST
Description: 8 mg/ml non-derivatized rpST and small-loop derivatized rpST (prepared with IA according to Example 1) solutions containing 0.5% sodium azide were prepared in either 46 mM carbonate buffer (pH 9.8) or phosphate buffered saline (pH 7.4). Aliquots of 1.25 ml were incubated in Eppendorf Microcentrifuge tubes for 0.6, 4.6, 8.8, 22 and 120 days at 37° C.
At the end of each incubation period the aliquots were removed and analyzed for rpST monomer using Superose-12 size-exclusion chromatography with a mobile phase of 46 mM carbonate buffer (pH 9.8).

[5] = stability in the wetted state, rpST monomer recovery; type: physicochemical; conditions: 5 mg wetted with Tris-HCl pH 7.4 or carbonate buffer pH 9.8, 14 days at 37° C.; compared with non-derivatized rpST
Description: Non-derivatized rpST and small-loop derivatized rpST (prepared with IA according to Example 1) containing 5 mg/ml were dialyzed against 0.46 mM carbonate buffer an lyophilized to produce dry rpST samples for further testing. Five mg of dry small-loop derivatized and non-derivatized rpST were wetted with 0.01 ml of 50 mM Tris-HCl, pH 7.4, 0.05% sodium azide or 46 mM carbonate buffer, pH 9.8, 0.05% sodium azide. The paste was allowed to incubate for 14 days at 37° C. At the end of this time, the rpST was diluted to a final concentration of about 1.8 mg/ml in 46 mM carbonate buffer, pH 9.8, sonicated in a Branisonic 220 sonicator for several minutes, and centrifuged at 15,000×G for 5 minutes. The supernatant was analyzed for monomer content by the chromatographic procedure described in Example 6.

B1: pST Standard: pST standard of the hypox rat assay; footnote mentions pituitary derived pST standard (protein, UniProt P01248 27-216, looked up)
Somatotropin: FPAMPLSSLFANAVLRAQHLHQLAADTYKEFERAYIPEGQRYSIQNAQAAFCFSETIPAPTGKDEAQQRSDVELLRFSLLLIQSWLGPVQFLSRVFTNSLVFGTSDRVYEKLKDLEEGIQALMRELEDGSPRAGQILKQTYDKFDTNLRSDDALLKNYGLLSCFKKDLHKAETYLRVMKCRRFVESSCAF
With B1 the relative bioactivity ([1]; at equivalent dose when the ST was dissolved in 9.5 high pH buffer) was 51%, the “% Weight Gain Mean” value [1] was 23.1% and the “% Relative Bioactivity” value [1] was 55%.

B2: Small-loop derivatized Zn-RpST: zinc form of small-loop derivatized recombinant porcine somatotropin (protein, UniProt P01248 27-216, looked up)
Somatotropin: B1 Somatotropin
modifications: zinc form; small-loop cysteines carbamidomethylated
notes: zinc form of small-loop derivatized recombinant porcine somatotropin
With B2 the “% Weight Gain Mean” value [1] was 13.5% and the “% Relative Bioactivity” value [1] was 58%.

B3: small-loop derivatized rpST: recombinant porcine somatotropin with small-loop disulfide reduced with 2-mercaptoethanol and sulfhydryls carbamidomethylated with iodoacetamide (Example 1) (protein, UniProt P01248 27-216, looked up)
Somatotropin: B1 Somatotropin
modifications: small-loop cysteines carbamidomethylated
With B3 the percent activity [2] was 181%, the activity [3] was 125% and the “% Weight Gain Mean” value [1] was 13.5%. The “percentage of monomer recovered” value [4] was “higher percentage of monomer recovered” and the “recovery of rpST monomer” value [5] was “much greater”.

B4: Non-derivatized Zn-rpST: zinc form of non-derivatized recombinant porcine somatotropin (protein, UniProt P01248 27-216, looked up)
Somatotropin: B1 Somatotropin
modifications: zinc form
notes: zinc form of non-derivatized recombinant porcine somatotropin
For B4, the “% Weight Gain Mean” value [1] was 17.1% and the “% Relative Bioactivity” value [1] was 74%.

B5: Dialyzed Zn-rpST: dialyzed zinc recombinant porcine somatotropin (protein, UniProt P01248 27-216, looked up)
Somatotropin: B1 Somatotropin
modifications: zinc form
notes: dialyzed zinc recombinant porcine somatotropin
With B5 the “% Weight Gain Mean” value [1] was 14.4% and the “% Relative Bioactivity” value [1] was 62%.

B6: non-derivatized rpST: unmodified recombinant porcine somatotropin produced in E. coli ATCC 53031 (protein, UniProt P01248 27-216, looked up)
Somatotropin: B1 Somatotropin
modifications: E. coli recombinant
With B6 the percent activity [2] was “about 75%”, the activity [3] was 100% and the “% Weight Gain Mean” value [1] was 14.4%.
